Reference: patent publication US20200369755A1 (PROTHENA BIOSCIENCES, published 2020)

Key:
[1] = biological target: recombinant human tau (human, UniProt P10636 1-383); assay: SPR (Biacore T200): antibody captured on an anti-mouse chip, recombinant human tau 10-0.14 nM as analyte, global 1:1 fit
Method: Methods: SPR analysis was performed using a Biacore T200 to determine the binding kinetics of murine antibodies to recombinant human tau. To prepare a sensor surface, anti-mouse antibody (GE Life Sciences) was immobilized on sensor chip CM5 via amine coupling, and antibody was captured at a level to ensure maximum binding of 50 RU. Various concentrations of recombinant tau ranging from 10-0.14 nM were passed over the captured ligand at a flow rate of 50 μL/min in running buffer (HBS+0.05% P-20, 1 mg/mL BSA), for 180 sec association and 900 sec dissociation. Data were double-referenced to both an irrelevant sensor not containing antibody ligand, and 0 nM analyte concentration to account for the dissociation of ligand from the capture moiety. Data was then analyzed using a global 1:1 fit.

[2] = biological target: T1, recombinant human 4R0N tau (human, UniProt P10636 2-758); assay: SPR, Biacore T200, antibody captured on anti-human Fc, tau as analyte, 1:1 fit
T1 construct: also called P10636-6
Method: Target binding analysis was performed using a Biacore T200 to compare the binding affinity of humanized 3D6 variants to recombinant human 4R0N tau. Anti-Human Fc antibody was immobilized on sensor chip CM3 via amine coupling, and humanized 3D6 variants were captured to equivalent levels. […] Data was blank subtracted to both an irrelevant sensor not containing antibody and 0 nM analyte concentration. Analysis was performed using a global 1:1 fit with Biacore Evaluation software.

[3] = biological target: T2, 4R tau fibrils (UniProt P10636-6 1-383, limits assumed); assay: ELISA, biotinylated antibody on plate-coated preformed fibrils, 4-parameter fit
T2 construct: Fibrils pelleted at 100,000 x g and coated on ELISA plates; also called fibrillar tau; recombinant tau fibrils of 4-repeat tau
Method: (§1) ELISA plates were coated with preformed fibrils (overnight at 4° C. in 50 mM carbonate-bicarbonate buffer, pH 9.6), washed, and blocked with 1% BSA in PBS. After blocking, plates were incubated with the indicated concentrations of biotinylated primary antibody in 0.1% BSA/PBS for 1h at room temperature. Plates were washed, and then incubated with streptavidin-HRP in 0.1% BSA/PBS for 45 min. Plates were then washed and developed with OPD, and absorbance was measured at 490 nm. Binding curves were analyzed using a 4-parameter log fit.

[4] = biological target: T3, mixed fibrils of 3-repeat and 4-repeat tau (UniProt P10636 1-352; P10636 1-383, limits assumed); assay: ELISA on plates coated with preformed mixed 3R/4R tau fibrils, biotinylated antibody, streptavidin-HRP, OPD, A490 [binding to mixed fibrils]
T3 construct: Made by seeded growth of 3-repeat and 4-repeat tau; also called fibrils containing both 3R and 4R tau
Method: as §1

[5] = biological target: biotinylated recombinant tau (UniProt P10636-6 1-383, limits assumed, biotinylated); assay: competition ELISA: inhibition of biotinylated tau binding to plate-bound low molecular weight heparin
Method: To test the ability of murine and humanized 3D6 variants to interrupt tau interaction with heparin, ELISA plates coated with low molecular weight heparin were first blocked with 2% BSA in PBS for 2h at room temperature. Plates were washed with TBST. After blocking, plates were incubated with biotinylated recombinant tau along with indicated concentrations of unlabeled antibody in 1% BSA/PBS for one hour at room temperature. Plates were again washed, and then incubated with streptavidin-HRP in 0.1% BSA/PBS for 45 min. Plates were then washed and developed with OPD, and absorbance was measured at 490 nm. Inhibition curves were analyzed using a 4-parameter log fit.

Chain of recombinant human tau (P10636 other isoform, or with tags, fused parts or gaps): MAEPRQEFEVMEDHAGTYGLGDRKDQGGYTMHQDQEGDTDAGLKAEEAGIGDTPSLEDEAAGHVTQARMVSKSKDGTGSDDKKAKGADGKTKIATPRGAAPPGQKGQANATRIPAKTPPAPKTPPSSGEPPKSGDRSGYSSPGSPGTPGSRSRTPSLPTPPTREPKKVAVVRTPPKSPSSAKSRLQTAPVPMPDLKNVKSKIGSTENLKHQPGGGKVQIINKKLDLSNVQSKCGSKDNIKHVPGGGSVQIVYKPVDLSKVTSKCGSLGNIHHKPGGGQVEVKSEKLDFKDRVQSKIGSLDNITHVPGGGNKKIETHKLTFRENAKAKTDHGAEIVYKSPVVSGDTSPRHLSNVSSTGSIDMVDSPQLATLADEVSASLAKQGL
T1 sequence (P10636 other isoform, or with tags, fused parts or gaps limits assumed): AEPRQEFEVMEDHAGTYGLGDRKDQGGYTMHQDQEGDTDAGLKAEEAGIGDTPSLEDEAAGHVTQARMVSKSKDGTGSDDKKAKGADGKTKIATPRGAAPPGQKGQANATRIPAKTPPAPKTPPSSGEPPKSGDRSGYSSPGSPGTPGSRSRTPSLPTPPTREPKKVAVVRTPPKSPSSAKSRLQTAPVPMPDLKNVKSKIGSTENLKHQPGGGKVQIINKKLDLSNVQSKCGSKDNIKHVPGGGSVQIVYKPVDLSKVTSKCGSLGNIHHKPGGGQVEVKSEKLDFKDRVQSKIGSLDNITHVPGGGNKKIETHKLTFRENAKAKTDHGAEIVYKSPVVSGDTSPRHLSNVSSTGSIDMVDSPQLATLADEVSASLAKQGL
Chain of biotinylated recombinant tau (P10636 other isoform, or with tags, fused parts or gaps limits assumed): as the sequence (P10636 other isoform, or with tags, fused parts or gaps) above
T2 sequence (P10636 other isoform, or with tags, fused parts or gaps limits assumed): as the sequence (P10636 other isoform, or with tags, fused parts or gaps) above
T3 sequence (P10636 other isoform, or with tags, fused parts or gaps limits assumed, chain 1 of 2): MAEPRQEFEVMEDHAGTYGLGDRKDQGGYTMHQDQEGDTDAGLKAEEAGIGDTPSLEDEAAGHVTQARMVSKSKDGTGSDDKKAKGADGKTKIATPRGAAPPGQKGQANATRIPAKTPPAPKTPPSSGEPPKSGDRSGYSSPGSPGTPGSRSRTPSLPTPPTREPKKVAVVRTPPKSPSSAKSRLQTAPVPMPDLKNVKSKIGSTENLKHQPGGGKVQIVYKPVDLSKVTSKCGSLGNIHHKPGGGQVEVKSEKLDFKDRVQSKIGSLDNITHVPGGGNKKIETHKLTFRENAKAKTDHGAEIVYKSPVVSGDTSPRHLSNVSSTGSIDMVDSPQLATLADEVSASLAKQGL
T3 sequence (P10636 other isoform, or with tags, fused parts or gaps limits assumed, chain 2 of 2): as the sequence (P10636 other isoform, or with tags, fused parts or gaps) above

| Kd [1] [pM] | koff [1] [s⁻¹] | kon [1] [M⁻¹ s⁻¹] | Kd [2] [pM] | koff [2] [s⁻¹] | kon [2] [M⁻¹ s⁻¹] | EC50 [3] [pM] | EC50 (read off the curve) [4] [pM] | IC50 [5] [pM] | Binder |
| --- | --- | --- | --- | --- | --- | --- | --- | --- | --- |
| 3800 | 0.00227 | 599000 | – | – | – | – | – | – | 8A4 (antibody, V domains shown) VH: EVQLQQSGAELVRPGALVKLSCKASGFNIKDYYIHWVKQRPEQGLEWIGWIDPENGDTVYDPQFQDKANITADTSSNTAYLQLSSLTSEGTAVYYCSTLDFWGQGTTLTVSS VL: not shown |
| – | – | – | 181 | 0.00074 | 4.17e+06 | 237 | ~900 | 565 | hu3D6VHv1bA11/hu3D6VLv2 (antibody, V domains shown, Humanized antibody expressed in 293 cells, captured by anti-human Fc; also called parental hu3D6VHv1bA11/hu3D6VLv2; h3D6Hu5 heavy chain variable region) VH: EVQLVQSGAEVVKPGATVKISCKASGFNIKDYYLHWVRQRPGQGLEWIGWIDPENGDTVYDPKFQGRATITADTSTDTAYLQLGSLTSEDTAVYFCSTLDFWGQGTLVTVSS VL: not shown |
| – | – | – | 94.8 | 0.000535 | 5.65e+06 | 192 | ~700 | 423 | hu3D6VHv1bA11/L2-DIM4 (antibody, V domains shown) VH: EVQLVQSGAEVVKPGATVKISCKASGFNIKDYYLHWVRQRPGQGLEWIGWIDPENGDTVYDPKFQGRATITADTSTDTAYLQLGSLTSEDTAVYFCSTLDFWGQGTLVTVSS VL: DVVMTQSPLSLPVTLGQPASISCKSSQSLLDSDGKTYLNWLQQRPGQSPRRLIYLVGKRDSGVPDRFSGSGSGTDFTLKISRVEAEDVGVYYCWQGTHFPYTFGGGTKLEIK |
